{"source": "a protein production outcome set (Wang et al. 2014)"}
{"test": "label from the status in PepcDB records"}
{"sequence": "AANPDIMYRLLIQSVVDYAIYLLTPEGIVANWNPGAQRAKGYRAEEIVGQHYSLFYTDAERAAGLPAFNLEQARSTGRFEETGARLRKDGTAFHAHVVIEAVYDDAGQLVGFAKVTRDISERHRQELELLQAKELAEQYSQEMAKLSQFLDSVIANIP", "protein production": "failed"}
{"sequence": "AAVLTQDKNTPTYGPANGKVTVIEFFDYQCVYCSRLAPVMEQVIKAHPQTRFAFKEWPIFGGRWESSLEAAKTGLQIYQQKGADAYLAYHNGIYATGHNEGKLTTADIQQQAKKAGFDAKKAADVEPVLQSINDLAQEIGLSGTPGVIVMPTTGATEASITVFPGLADKASLEAAIKKAGG", "protein production": "failed"}
{"sequence": "ADAQLIGHTNPSGEITFGEETFTIAQALDTLERDYREVYPLNVTTADVEALPDFATALPKADTDSEEANASAGDKAVHVLLPVFPGTNSEYDMAEAFEAAGATTEFHIIRNLNSEMLAADTEAFITKLQSANILAFSGGFSLGDEPDGSAKFMAAFLRSDTVAAAIKDFVARDGLVLGICNGFQALVKSGFLPYGDPAKMSAESPTLAHNRQLRHVSRIATTRVSSVASPWLSTFTPGQQHLMPVSHGEGRFVVSEKEAQALFSAGQVAFQYVDAEGTPTMEAPANPNGSNYAIEGIISPDGRILGKMGHPERFRDGLMRNIPGMEIQDIFANAVNYCRKSQR", "protein production": "failed"}
{"sequence": "ADEEESTPCDNVETDQQTFACAAFNKQVAERELQSAYDELIERMRDQFGDEAGLMSRIEAAEKVWSQLRDADCKVETHAEQPGSNAYQIAWNSCIAQRSDERAEYLRSLGSQNSDEPAPED", "protein production": "not failed"}
{"sequence": "ADVSSSDLATLRRLTNEFQAELATLGTRVDDLEARTSELENQQFSTTTKLNGEAIFSISGATGGEPEGNDAQITFNNRLRLNLTTSFTGKDALITGLQAYNFSAGKSITGTGNVAETLFPNDASILGDSMTNLAWEPQFAGLNPQNLQPSCGNNSLCLYKLLYVRPITDKLTAFIGPKAEVTDAFPAILPFASEGQGALSRFATLNPVLRMSGGTSGTGLASAAGFIYKPNDVIDWRALYGSVNAAIPGNEGFPGTPLGAGLFNGSFIAATQLTLHPNDKLDLGLNYAYSYHQINIAGTGLTGAETRILGDLPLTTPVRFNSFGATVNWRVSPKVNLTGYGAYIMTDQANSGSAYTNLSSWMAGLYFPDAFAKGNAAGILFGQPLYRVDAGNGASLSPANIGDRQTPYQLEAFYRHQINDHISITPGAFVIFNPEGDAQNETTSVFALRTTYTF", "protein production": "failed"}
{"sequence": "AEEKVKDEAMQIMGMFQILPRLVVFDLDYTLWPFYCECRSKREMPSMYPQAKGILSALKEKGIEMAIASRSPTSDIANTFLDKLNIKPMFVAKVSKMGVTSILVGDGVTLGAFRQGLTEFTQNHNSIEKNKQVWRDKYSG", "protein production": "failed"}
{"sequence": "AEGRGKARADSLKAGSQGLSANKRRADGSFESVVASSLRKGDVVRVQAGEMIPGDGEVIEGVAAVNEAAITGESAPVIRESGGDRSAVTGNTQVVSDWLLVRIGANPGESTLDRMIALVEGAKRQKTPNEV", "protein production": "failed"}
{"sequence": "AEGTRGRSSTARCSLFGSDFVNTFDGSMYSFAGYCSYLLAGGCQKRSFSIIGDFQNGKRVSLSVYLGEFFDIHLFVNGTVTQGDQRVSMPYASKGLYLETEAGYYKLSGEAYGFVARIDGSGNFQVLLSDRYFNKTCGLCGNFNIFAEDDFMTQEGTLTSDPYDFANSWALSSGEQWCERASPPSSSCNISSGEMQKGLWEQCQLLKSTSVFARCHPLVDPEPFVALCEKTLCECAGGLECACPALLEYARTCAQEGMVLYGWTDHSACSPVCPAGMEYRQCVSPCARTCQSLHINEMCQERCVDGCSCPEGQLLDEGLCVESTECPCVHSGKRYPPGTSLSRDCNTCICRNSQWICSNEECPGECLVTGQSHFKSFDNRYFTFSGICQYLLARDCQDHSFSIVIETVQCADDRDAVCTRSVTVRLPGLHNSLVKLKHGAGVAMDGQDIQLPLLKGDLRIQHTVTASVRLSYGEDLQMDWDGRGRLLVKLSPVYAGKTCGLCGNYNGNQGDDFLTPSGLAEPRVEDFGNAWKLHGDCQDLQKQHSDPCALNPRMTRFSEEACAVLTSPTFEACHRAVSPLPYLRNCRYDVCSCSDGRECLCGALASYAAACAGRGVRVAWREPGRCELNCPKGQVYLQCGTPCNLTCRSLSYPDEECNEACLEGCFCPPGLYMDERGDCVPKAQCPCYYDGEIFQPEDIFSDHHTMCYCEDGFMHCTMSGVPGSLLPDAVLSSPLSHRSKR", "protein production": "failed"}
{"sequence": "AEITEVRIYKSKGNGSVKAYASVSFDNEFVVKGLKVVEGEKGLWVSMPSRRMKDGSFQDVFHPVSREARDKIVDAVLKAYQEQE", "protein production": "failed"}
{"sequence": "AESESFVLDFSQPSADYLDFRNRLQADHVCLENCVLKDKAIAGTVKVQNLAFEKTVKIRMTFDTWKSYTDFPCQYVKDTYAGSDRDTFSFDISLPEKIQSYERMEFAVYYECNGQTYWDSNRGKNYRIIRAELKSTQGMTKPHSGPDLG", "protein production": "not failed"}
{"sequence": "AGSATITYSVLEETDRGSLVGNLAKDLGLSLRELITRGAQILSKGNKQLLQLEQKSGNLLLKEKLDREELCGSTNPCILHFQVLLKSPVQFIQGEIQLQDVNDHAPEFMEDE", "protein production": "not failed"}
{"sequence": "AHARLQITQFAMDSVGIGIQWIDPDSGRFVYANRHTAELLGYSEQEMLTLTVSDIDPAFPLPAFHATMARLRQSRYTQFQSQIETRGGVPIPVEITLYYMEGDADAPARVIAFLTDISRRKETEQTLVQAKEAAEKANLAKTAFVANMSHEIRTPMNAILGMV", "protein production": "failed"}
{"sequence": "AHNLALGAHGEDLAARYLTEAGMEIVDRNWRSRYGEVDLIAAEGDWLVFVEVKTRRGLGYGSPAEAVTFSKQRRIRLLAVEWLRDSGRHWSRVRFDVVAIMIGHGPQPQIEHVRD", "protein production": "failed"}
{"sequence": "AHQYGVKSYIGIPRSYSHDRTDFMQSEQAEILYYDGKYEETVEFIRDFSKDNGLYDASPGSANSSIDKMMYATIAFEIYEALLTVPSYVIVPVGNGTTLAGIYHGFRRMYDEGVIDHLPRMVGVSTSGGNPIVDSWRHGYSRVVDLNPEEIRETSINEPLVSYRSFDGQDALSAIRETHGRAMYVSDEEMVYYSNLIYSAEGLNPLPASASAVAAIGHLKVKQDETVVSVITGRQI", "protein production": "failed"}
{"sequence": "AIAAQTERRDAPELPDFSLLKRLARDQLIFLLEQLPGKKDLFIDADLMSPLDRIANVTILKQHEVDKLYKVELKPIVSSSDQLCFLIRPRIQTVKWISDLVNSDKVAGRFRRYKIIFTPQKFYACETVLEEQGVYGDVTTDEWNFYILPLDDDILSLELPEFFRDNFLEGDQRWVTTGGGALHLLQSVYGSFSKVYGIGRCAKMVYESWRELMEEGEQRTRQPEFAKVFLIDRDVDFVTPLCSQVVYEGLVDDIFRIKCSSVEFGPDVTSSDKSIKVMLNSQDKVFNEIRNEHFSNVFGFLSQKAKNLQTAYDKRRGMDIQQMKAFVADELKGLKQEHRLLSLHIGASESIMKKKTKQDFQELLKTEHSLLEGFEIRECIAYIEEHINRQVSMIDSLRLLCLLSITENGLLSKDYRSLKAQYLQSYGIEHLLTFANLRQLGLLEEQQTGETLTVMESKVGKLVNDKTAGKLTDAFSSLAKKSNFRALSKRLALVPKSGEEYDLRVPRDMAYIFSGAYIPLSCKLIEQVLERDGWTGLEEVTRMLNGQDFAVTGGSSSSEARNKSNGQRIILVMFLGGCTYSEISALRFLGKERGCRFIVLTTAITNSGRLLEALLDKHV", "protein production": "failed"}
{"sequence": "AIARSEWPFDYASEADAMLHRITPENFEKLVRFAARLLRVGEIIALPTDTVYGLAAAARNSHGIELLYQTKQRDLRKPLAIAVPSVEDVSVYLHTEHLPPGLLEAILPGPLTLLLRQREDYVGIDLQDVRIDQYRGWERAKRLAPNLNLRRDGLLGVRVPDASFACAVSRELGDPLALTSANVSGRGDCGSVDEFRALWSACAAVFDGGAMPKPVMPSTVVDLSVPGTFRITRAGWMATDLVRILENKFGLTNKSANTSN", "protein production": "failed"}
{"sequence": "AIASRAASLRAELTSLANAFEEERISSAERLDADLVRQAVEQAKPENLEQWKQVVHDATAKLQQFWEDSEQALIRETYALATSYLRESDDEVHRLQMTKKALEEQLETERRRSTRIEEQLAALQSRLLDSAAPAATTPADDARTQQEVLRSELQGFMQELVRNQRESLRVLQEELQRVREEASVREENLLRQIAHLKTELAVARTDNEVSSRQLRQLETSAGREEVQDELGPGTIWPPHLTPRRGHRRFQRHNRLEDAPAPPEF", "protein production": "failed"}
{"sequence": "AIAVSPLKTRCCSPSSQQQASEAREIEQPSTVWELDFYSRPVYGKDNKRIWELIVVDESFLLCHVESVPNDMINSAELRKRVERLLEQVTVKPKVVKFSRMPMFNMISLALKDLGFEVKPSRRTYRLYHVLRDREANIYSKMPGYRSENTLSTSYLYSTERLPDALRGEKFAFCTADYSFLYELQSSDTIPYCDIFNTGDSILLEKELPGIIVYSERADSLASWTAGAEVSFIKFREEELELVLECGINSHYRLAKIAEDHRLVEEAKTFEQMKWHMKGFHFYAIQSLKETSGTSHIKGLWLLNDFMEQ", "protein production": "not failed"}
{"sequence": "AITLTCDEIEQAFLHDHIFNYYQPQFDFRSGAMVGVEALVRYEHPTHGMLSPAVFLPLIEQCGLHEKLFLTVLEKSVSALASIGADLQLSVNISQRNLQHSICDPILAICERYGFPASKLTLEMTEHEVYNGTPTSLANLARLRMYGVGLSIDDFGTGYASLGQLAQLPFTELKIDRSFVHDLATNYKHQQLTNMCLLLAQSLGLHCVVEGVENEETWQYLRQLGVDTCQGYYAAKP", "protein production": "failed"}
{"sequence": "ALIAGHFADPFSVLGMHRTDAGLEVRALLPDATDVWVIEPKTGRKVGKLECLDSRGFFSGVLPRRKNAFRYQLAVTWHGQQNLIDDPYRFGPLLQ", "protein production": "failed"}
{"sequence": "ALKLMQYIGDAIGTIRDPQELFRTVTDKLRLLFAFDSAVIITIDRERREASVFFEMLRFELPEQLRHQTRSIAGTWLEGHLDDRTVTVASIARDIPSFGADGAPLLWTLHELGMRQIVLSPLRSGGRVIGFLSFVSAEEKLWSDGDKSLLSGVSSSIAIAVSNALAYEELRQRE", "protein production": "not failed"}
{"sequence": "ALQDRTQFSDRDLATLKKYWDNGMTSLGSVCREKIEAVATELNVDCEIVRTWIGNRRRKYRLMGIEV", "protein production": "not failed"}
{"sequence": "ALYNVDAGHRAVIFDRFRGVQDIVVGEGTHFLIPWVQKPIIFDCRSRPRNVPVITGSKDLQNVNITLRILFRPVASQLPRIFTSI", "protein production": "failed"}
{"sequence": "ANTSGKDGTTVVIGESKSDHVIHLYEDPRCPGCAAMEQSIGETVNKGMEDGDYKLSFTVGTFLDGNLGGEGSKNALSALGAALNVSPEAFVDYKTALYSTKYHPEESTDEFAKDDYLIKVADSVDALKGNKKFQDAVEKGTYDAWAMRMSKSFDKAEGVESTPTIKINDKVVETPSTPDAWQKALKDAGVTK", "protein production": "failed"}
{"sequence": "APAEPAAPKSGEAETPPKHPGVLKVEAILEKVQGLEQAVDSFEGKKTDKKYLMIEEYLTKELLALDSVDPEGRADVRQARRDGVRKVQTILEKLEQKA", "protein production": "not failed"}
{"sequence": "APEWTEEDLSQLTRSMVKFPGGTPGRWEKIAHELGRSVTDVTTKAKQLKDSVTCSPGMV", "protein production": "not failed"}
{"sequence": "APKTFMFGVSKVEEPKTVSFGTGIKETTATSSTEATAPTPAAAAPAPVQFVFKAPTTATTASSLTTTISTTSNAPALGGFSFGAPSSSSTVSSSTTSTSANPAAVKPMFSWSGAGSAVSSTSSSQQPVAKAPTLGFGVSSSTVTTTTTSTKVFAFTPASGLDPAAATSAPAAGAGFSFGSQSKPATTQNTGTFFFGQPTAVAPATPTNPSVSSIFGAPATSTTASTSVSATTSTSTANAIASSFAPTSTPQLFGNWGEKKTDLTTFGASSGSGTTTTPSFGWSSNGDAAKSNSAAVGSAAVPSSSASTMATPIFGSSSMFGPSSSSNNTTSTSTTSLPFGSAATTAATTPAGGNAALTGLFGNVGNSLAGVGAPVATTPAATAAAPLTNIFGNPTPVAAAAPVFGSGSTIPSAGFGAPAAAAPLAAPALPGAFN", "protein production": "failed"}
